The target of this test is tlr4_human TLR4 (UniProt O00206).
tlr4_human TLR4, sequence (O00206 whole entry): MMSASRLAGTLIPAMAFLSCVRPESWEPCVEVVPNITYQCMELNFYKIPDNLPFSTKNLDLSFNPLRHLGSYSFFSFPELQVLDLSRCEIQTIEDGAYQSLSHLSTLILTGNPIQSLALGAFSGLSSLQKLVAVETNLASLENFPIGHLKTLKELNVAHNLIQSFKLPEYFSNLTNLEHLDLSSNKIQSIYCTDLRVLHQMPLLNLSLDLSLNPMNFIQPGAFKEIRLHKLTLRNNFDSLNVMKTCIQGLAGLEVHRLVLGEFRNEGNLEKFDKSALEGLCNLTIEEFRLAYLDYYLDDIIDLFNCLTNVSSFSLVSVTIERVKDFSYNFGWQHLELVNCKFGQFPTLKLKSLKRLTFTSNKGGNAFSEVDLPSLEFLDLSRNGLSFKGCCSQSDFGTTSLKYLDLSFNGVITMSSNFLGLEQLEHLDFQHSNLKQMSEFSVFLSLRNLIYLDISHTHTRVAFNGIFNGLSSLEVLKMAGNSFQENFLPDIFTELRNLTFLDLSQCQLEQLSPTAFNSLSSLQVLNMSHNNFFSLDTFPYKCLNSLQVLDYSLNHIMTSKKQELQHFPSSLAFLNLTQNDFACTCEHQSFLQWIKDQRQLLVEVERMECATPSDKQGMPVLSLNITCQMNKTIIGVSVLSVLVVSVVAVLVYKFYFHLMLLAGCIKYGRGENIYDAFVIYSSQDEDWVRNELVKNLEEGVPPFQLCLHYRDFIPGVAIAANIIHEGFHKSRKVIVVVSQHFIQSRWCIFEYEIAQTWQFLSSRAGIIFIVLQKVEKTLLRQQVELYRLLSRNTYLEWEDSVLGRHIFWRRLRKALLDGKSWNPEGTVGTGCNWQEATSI
On to “Tenascin (Homo sapiens), P24821 K2096A;R2098A;K2100A;K2102A”, for which the “effect of a mutation on the interaction” value was “decreasing interaction strength”.
The result for “Tenascin (Homo sapiens), P24821 K2096A;R2098A;K2100A;K2102A;D2130P;I2133L;N2135S” reads “decreasing interaction strength”; that for “Tenascin (Homo sapiens), P24821 K2100A;K2102A”, “decreasing interaction strength”.
For “Tenascin (Homo sapiens), P24821 K2096A;R2098A” the value was “decreasing interaction strength”; for “Tenascin (Homo sapiens), P24821 D2130P;I2133L;N2135S”, “decreasing interaction strength”.

The record behind these values is IntAct's records for PubMed 29150600.
